Drawing on US20220259283A1 (AARHUS UNIVERSITET, published 2022), this text covers binding result and Kd for 3 molecules.

B1: hPGRN-6his (human progranulin with a C-terminal 6his-tag) (ligand)
chain: TRCPDGQFCPVACCLDPGGASYSCCRPLLDKWPTTLSRHLGGPCQVDAHCSAGHSCIFTVSGTSSCCPFPEAVACGDGHHCCPRGFHCSADGRSCFQRSGNNSVGAIQCPDSQFECPDFSTCCVMVDGSWGCCPMPQASCCEDRVHCCPHGAFCDLVHTRCITPTGTHPLAKKLPAQRTNRAVALSSSVMCPDARSRCPDGSTCCELPSGKYGCCPMPNATCCSDHLHCCPQDTVCDLIQSKCLSKENATTDLLTKLPAHTVGDVKCDMEVSCPDGYTCCRLQSGAWGCCPFTQAVCCEDHIHCCPAGFTCDTQKGTCEQGPHQVPWMEKAPAHLSLPDPQALKRDVPCDNVSSCPSSDTCCQLTSGEWGCCPIPEAVCCSDHQHCCPQGYTCVAEGQCQRGSEIVAGLEKMPARRASLSHPRDIGCDQHTSCPVGQTCCPSLGGSWACCQLPHAVCCEDRQHCCPAGYTCNVKARSCEKEVVSAQPATFLARSPHVGVKDVECGEGHFCHDNQTCCRDNRQGWACCPYRQGVCCADRRHCCPAGFRCAARGTKCLRREAPRWDAPLRDPALRQLLHHHHHH
notes: Purified protein; also called progranulin-6his; human progranulin-6his

One experiment addresses T1, sortilin (human, UniProt Q99523).
T1 construct: soluble, 6his-tagged; Injected at 25-250 nM over immobilized progranulin-6his as a comparison with SorCS2; also called hSortilin-6his; soluble human sortilin
T1 sequence (receptor, soluble form, looked up): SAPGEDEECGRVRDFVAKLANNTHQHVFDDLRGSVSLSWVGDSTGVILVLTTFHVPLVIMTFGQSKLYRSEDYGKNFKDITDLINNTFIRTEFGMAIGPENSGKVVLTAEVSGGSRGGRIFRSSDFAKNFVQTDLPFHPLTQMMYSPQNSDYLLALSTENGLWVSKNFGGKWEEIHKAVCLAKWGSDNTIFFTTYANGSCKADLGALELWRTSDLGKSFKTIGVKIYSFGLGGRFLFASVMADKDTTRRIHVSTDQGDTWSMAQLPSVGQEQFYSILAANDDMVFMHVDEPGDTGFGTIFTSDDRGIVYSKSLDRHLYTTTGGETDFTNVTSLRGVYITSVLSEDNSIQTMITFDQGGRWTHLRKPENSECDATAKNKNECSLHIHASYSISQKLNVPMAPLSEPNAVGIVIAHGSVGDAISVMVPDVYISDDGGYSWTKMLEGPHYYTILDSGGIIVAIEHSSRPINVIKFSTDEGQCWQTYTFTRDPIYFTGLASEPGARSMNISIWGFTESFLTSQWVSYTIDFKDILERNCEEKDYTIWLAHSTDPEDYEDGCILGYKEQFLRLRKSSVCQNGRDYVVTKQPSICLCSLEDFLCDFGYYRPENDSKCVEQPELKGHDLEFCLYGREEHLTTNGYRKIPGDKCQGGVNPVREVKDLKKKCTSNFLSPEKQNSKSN
In words: SPR, soluble human sortilin injected over immobilized C-terminal his-tagged progranulin on a CM5 chip. Here is the method: (§1) Purified hPGRN-6his or hSorCS2-6his was immobilized on a CM5 sensor chip using standard amine-coupling. All sensograms were collected in PBS+0.05% Tween20 following injection of purified hPGRN-6his over immobilized hSorCS2-6his or hSortilin-6his and hSorCS2-6his with/without PGRN derived peptide over immobilized hPGRN-6his. Following this experimental setup we estimated the dissociation constant of the hSorCS2:hPGRN interaction to be 15 nM (FIG. 4). […] Inhibition experiments was performed using 100 nM hSorCS2 preincubated with 100 uM PGRN-derived tetra peptide and injected over immobilized hPGRN-6his (FIG. 7).
In general terms: In SPR one partner is held on a chip, and binding of the other changes the refractive index at the surface.

For experiment [1], the target named is T2, hSorCS2-6his (extracellular domain of human SorCS2 with a C-terminal 6His-tag) (human, UniProt Q96PQ0 51-1076).
T2 construct: Made in CHO-K1 cells and purified from the medium; For crystallisation the protein was deglycosylated with PNGaseF; also called soluble human SorCS2; hSorCS2 extracellular domain
T2 sequence (Q96PQ0 other isoform, or with tags, fused parts or gaps): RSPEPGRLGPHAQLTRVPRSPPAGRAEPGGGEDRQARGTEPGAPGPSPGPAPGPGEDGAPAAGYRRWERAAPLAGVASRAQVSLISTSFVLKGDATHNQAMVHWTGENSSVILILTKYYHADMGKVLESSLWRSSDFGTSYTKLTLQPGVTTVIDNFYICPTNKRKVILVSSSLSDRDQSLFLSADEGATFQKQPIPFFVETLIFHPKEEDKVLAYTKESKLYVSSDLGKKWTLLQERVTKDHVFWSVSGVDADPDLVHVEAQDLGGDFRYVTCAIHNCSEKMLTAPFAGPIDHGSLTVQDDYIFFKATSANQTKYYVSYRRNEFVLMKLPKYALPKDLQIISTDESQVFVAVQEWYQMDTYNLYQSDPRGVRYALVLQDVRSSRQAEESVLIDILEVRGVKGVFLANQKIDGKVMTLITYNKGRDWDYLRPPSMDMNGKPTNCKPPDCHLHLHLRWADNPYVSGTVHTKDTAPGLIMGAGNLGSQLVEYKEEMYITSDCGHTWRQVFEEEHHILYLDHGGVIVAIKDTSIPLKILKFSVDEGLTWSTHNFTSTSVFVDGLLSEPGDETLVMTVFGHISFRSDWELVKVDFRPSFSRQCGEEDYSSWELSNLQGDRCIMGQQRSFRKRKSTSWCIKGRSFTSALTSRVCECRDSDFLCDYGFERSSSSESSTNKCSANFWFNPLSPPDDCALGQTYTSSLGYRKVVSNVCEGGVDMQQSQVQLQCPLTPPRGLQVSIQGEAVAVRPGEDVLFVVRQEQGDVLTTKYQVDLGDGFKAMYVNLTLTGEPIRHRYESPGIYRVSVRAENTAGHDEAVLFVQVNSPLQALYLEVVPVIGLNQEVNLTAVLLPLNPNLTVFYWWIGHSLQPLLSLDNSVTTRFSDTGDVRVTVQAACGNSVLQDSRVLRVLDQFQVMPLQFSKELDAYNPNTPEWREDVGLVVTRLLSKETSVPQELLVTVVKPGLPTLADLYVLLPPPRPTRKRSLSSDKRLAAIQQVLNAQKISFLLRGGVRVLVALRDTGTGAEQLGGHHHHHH
In words: SPR, hSorCS2-6his injected over hPGRN-6his immobilized on a CM5 chip. Here is the method: as §1

For experiment [2], the target named is T2, hSorCS2-6his (extracellular domain of …). In words: SPR, hPGRN-6his injected over hSorCS2-6his immobilized on a CM5 chip. The procedure:
as §1

Experiment [3] has the same target. In words: microscale thermophoresis, 25 nM labelled hSorCS2-6his, partner titrated, triplicates. Here is the method:
Equilibrium-binding affinities between hSorCS2 and hPGRN-6his, GrnE and RQLL peptide were assessed by MST. Purified hSorCS2-6his was labelled using the MO-003 monolith blue-NHS labelling kit according to manufactures recommendation. hSorCS2 was applied at a final concentration of 25 nM while the unlabelled binding partner was titrated in 1:1 dilutions (PBS+0.05% Tween20). MST measurements were performed in standard treated capilaiers on a monolith NT.115 instrument. For each binding partner the sigmoid-dose response curve was fitted with GraphPad prism 6 to yield an average dissociation constant.
A general note: In MST a laser heats a spot of the sample, and binding alters the fluorescence response.

Experiment [4] has as its target B1. In words: SPR, RQLL peptide alone injected over immobilized C-terminal his-tagged progranulin on a CM5 chip (control trace of the competition experiment). The procedure: as §1

Regarding B1, the binding result with sortilin is “no binding (tested: 250 nM)”. In addition, the equilibrium dissociation constant (Kd) in experiment [1] was found to be 7.4 nM; in experiment [2], 15 nM; in experiment [3], 47.8 nM.

B2: tetrapeptide RQLL (peptide)
peptide: RQLL
notes: also called RQLL peptide; PGRN-derived tetra peptide
As to B2, the binding result in experiment [4] is recorded as “no binding (tested: 100 uM)”. For the same molecule, the affinity in experiment [3], expressed as Kd, was 1000 nM.

B3: Granulin E (ligand, UniProt P28799 518-593, looked up)
chain: DVECGEGHFCHDNQTCCRDNRQGWACCPYRQGVCCADRRHCCPAGFRCAARGTKCLRREAPRWDAPLRDPALRQLL
notes: domain: Granulin E; also called GrnE
Consider B3, for which the Kd in experiment [3] was 2000 nM.

In general, Kd refers to the concentration at which binding is half-saturated. A higher Kd goes with a looser complex.
